The values that follow are results of earlier work, collected in paper PMC9274133.

pKd: −log10 of the molar value.

The target of data set [1] is gp130 (Homo sapiens) (UniProt P40189).
For data set [2], the target named is IL-11R (Homo sapiens) (UniProt Q14626).
For data set [3], the target named is IL-6R (Homo sapiens) (UniProt P08887).
IL-6R (Homo sapiens), sequence (P08887 20-355): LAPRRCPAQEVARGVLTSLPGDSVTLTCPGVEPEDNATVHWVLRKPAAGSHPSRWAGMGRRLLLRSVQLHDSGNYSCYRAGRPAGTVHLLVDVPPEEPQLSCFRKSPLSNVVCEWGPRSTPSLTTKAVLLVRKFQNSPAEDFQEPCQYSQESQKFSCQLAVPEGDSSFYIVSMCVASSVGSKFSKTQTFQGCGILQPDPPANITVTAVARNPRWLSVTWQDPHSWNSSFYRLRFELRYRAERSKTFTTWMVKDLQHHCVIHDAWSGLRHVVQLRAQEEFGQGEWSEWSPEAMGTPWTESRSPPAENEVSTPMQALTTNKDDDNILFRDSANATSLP

gp130 (Homo sapiens), sequence (P40189 23-619): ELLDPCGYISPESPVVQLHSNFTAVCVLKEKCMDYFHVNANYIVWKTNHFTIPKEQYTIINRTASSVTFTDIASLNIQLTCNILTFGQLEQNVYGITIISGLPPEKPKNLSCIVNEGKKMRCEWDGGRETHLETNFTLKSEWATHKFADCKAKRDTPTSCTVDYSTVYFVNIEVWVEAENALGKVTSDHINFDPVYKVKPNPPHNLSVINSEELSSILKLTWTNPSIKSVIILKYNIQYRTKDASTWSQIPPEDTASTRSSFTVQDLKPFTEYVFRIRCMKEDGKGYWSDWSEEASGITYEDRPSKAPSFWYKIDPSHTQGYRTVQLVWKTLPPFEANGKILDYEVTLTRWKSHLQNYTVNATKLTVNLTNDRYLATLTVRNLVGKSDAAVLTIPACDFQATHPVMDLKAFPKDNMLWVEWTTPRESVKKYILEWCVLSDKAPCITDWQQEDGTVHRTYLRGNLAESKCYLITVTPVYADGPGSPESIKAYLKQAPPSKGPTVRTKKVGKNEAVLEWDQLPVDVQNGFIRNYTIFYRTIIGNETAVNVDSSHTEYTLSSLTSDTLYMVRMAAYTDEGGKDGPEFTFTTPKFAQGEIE
IL-11R (Homo sapiens), sequence (Q14626 23-370): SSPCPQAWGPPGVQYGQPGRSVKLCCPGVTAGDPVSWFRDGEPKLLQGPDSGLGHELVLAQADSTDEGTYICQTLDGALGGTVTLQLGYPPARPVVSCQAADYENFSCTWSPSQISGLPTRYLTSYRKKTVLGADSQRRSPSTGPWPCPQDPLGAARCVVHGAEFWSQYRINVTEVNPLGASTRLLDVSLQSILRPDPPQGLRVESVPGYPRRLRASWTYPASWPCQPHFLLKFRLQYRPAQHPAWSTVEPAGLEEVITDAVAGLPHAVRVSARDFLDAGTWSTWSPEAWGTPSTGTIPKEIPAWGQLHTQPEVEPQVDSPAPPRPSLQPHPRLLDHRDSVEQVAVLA
IL-11, sequence (P20809 22-199): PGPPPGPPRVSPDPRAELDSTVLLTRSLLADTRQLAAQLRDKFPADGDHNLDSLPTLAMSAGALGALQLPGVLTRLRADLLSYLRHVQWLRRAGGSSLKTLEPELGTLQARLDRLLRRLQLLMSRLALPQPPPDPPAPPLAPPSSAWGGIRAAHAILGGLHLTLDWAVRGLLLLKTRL

On to “IL-6/IL-6R complex (from UniProt P05231)”, for which the negative logarithm of the Kd (pKd) (in general, the negative decadic logarithm of the Kd, by convention in mol/L) in data set [1] is 11.00.
Regarding IL-11 (from UniProt P20809), the pKd in data set [2] was 8.00.
In the case of IL-6 (from UniProt P05231), the pKd in data set [3] was 9.00.
